Molecular target: the molecule itself
Assay: SEC; HiLoad 16/60 Superdex 200 pg, 25 mM Tris-HCl pH 7.5, 500 mM NaCl, 4 °C, 1 mL/min; mass estimated from the elution volume

B1: Synechococcus sp. PCC 7002 CrtE (geranylgeranyl pyrophosphate synthase) (enzyme, UniProt B1XJV9 1-302, looked up)
chain: MVVADAHTQGFSLAQYLQEQKTIVETALDQSLVITEPVTIYEAMRYSLLAGGKRLRPILCLAACEMLGGTAAMAMNTACALEMIHTMSLIHDDLPAMDNDDLRRGKPTNHKVYGEDIAILAGDALLSYAFEYVARTPDVPAERLLQVIVRLGQAVGAEGLVGGQVVDLESEGKTDVAVETLNFIHTHKTGALLEVCVTAGAILAGAKPEEVQLLSRYAQNIGLAFQIVDDILDITATAEELGKTAGKDLEAQKVTYPSLWGIEKSQAEAQKLVAEAIASLEPYGEKANPLKALAEYIVNRKN
notes: CrtE (type II geranylgeranyl pyrophosphate synthase) of Synechococcus sp; PCC 7002, gene crtE, locus SYNPCC7002_A1085; amplified from genomic DNA with primers from the ATG to the stop codon; predicted 302 residues; Expressed from pHUE as an N-terminal His-tagged ubiquitin fusion and freed by deubiquitinase; also called Syn7002 CrtE; Syn7002 GGPPS; source: E. coli BL21(DE3), purified (Ni-NTA, …)
stoichiometry N: 2
